Measured values taken from article PMC12894433.

Tested on: dCas9 (EnGen Spy dCas9, SNAP-tag) (Streptococcus pyogenes)
Assay: single-molecule fluorescence co-localization
Conditions: NEBuffer r3.1 adjusted to 1 mM MgCl2; single-molecule: 17 nM YOYO-1, 1 ng DNA, about 1 nM dCas9-RNA, 15 min at 37 C; EMSA: 1 mM DTT, 1% agarose 1x TAE gel

## AAV2-ITR crRNA:tracrRNA-ATTO550 guide + pAAV-U6-sgRNA-CMV-GFP plasmid (positive)
  binding signal (% co-localization): 51

## AAV2-ITR crRNA:tracrRNA-ATTO550 guide + plasmid lacking the target site (negative)
  binding signal (% co-localization): 23
